Results from US20140378663A1.
Each block holds one substance with its values, some of them ahead of it.

Key:
[1] = molecular target: C1q complement (Calbiochem) (UniProt P02745); test: ELISA, 293-F supernatant, vs parent 256N/378V/383N/434Y
[2] = molecular target: FcRn-p3 (fusion protein of β2 microglobulin chain and FcRn α-chain fused to bacteriophage protein p3 and CVDE protein) (UniProt P61769); test: as above
[3] = molecular target: FcγRI (R&D system) (human) (UniProt P12314); test: as above
Sequence of FcγRI (R&D system) (human) (P12314 16-288 limits assumed): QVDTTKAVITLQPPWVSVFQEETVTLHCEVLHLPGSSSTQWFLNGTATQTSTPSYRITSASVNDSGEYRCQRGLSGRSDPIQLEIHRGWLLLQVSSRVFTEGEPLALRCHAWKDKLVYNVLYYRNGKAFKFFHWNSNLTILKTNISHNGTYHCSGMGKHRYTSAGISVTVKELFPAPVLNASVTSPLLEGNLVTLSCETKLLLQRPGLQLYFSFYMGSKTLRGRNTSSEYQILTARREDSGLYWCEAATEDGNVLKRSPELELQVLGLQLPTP

[4] = molecular target: FcγRIIaR131 (R&D system) (human) (UniProt P12318); test: as above
Sequence of FcγRIIaR131 (R&D system) (human) (P12318 36-218 H167R limits assumed): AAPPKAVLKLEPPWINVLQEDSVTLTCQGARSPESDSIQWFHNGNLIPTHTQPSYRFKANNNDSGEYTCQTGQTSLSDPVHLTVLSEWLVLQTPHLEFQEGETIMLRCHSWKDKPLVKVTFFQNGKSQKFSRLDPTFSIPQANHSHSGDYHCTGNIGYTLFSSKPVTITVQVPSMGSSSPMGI

[5] = molecular target: FcγRIIb (R&D system) (human) (UniProt P31994); test: as above
Sequence of FcγRIIb (R&D system) (human) (P31994 46-217 limits assumed): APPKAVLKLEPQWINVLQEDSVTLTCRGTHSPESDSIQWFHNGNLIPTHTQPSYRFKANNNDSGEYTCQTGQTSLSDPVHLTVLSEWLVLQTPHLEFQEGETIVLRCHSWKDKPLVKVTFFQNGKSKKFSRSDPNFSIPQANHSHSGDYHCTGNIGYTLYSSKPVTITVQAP

[6] = molecular target: FcRn-p3 (fusion protein of β2 microglobulin chain and FcRn α-chain fused to bacteriophage protein p3 and CVDE protein) (UniProt P61769); test: ELISA, purified IgG from YB2/0, vs parent R603-256N/378V/383N/434Y
[7] = molecular target: FcγRI (R&D system) (human) (UniProt P12314); test: as above
[8] = molecular target: FcγRIIaH131 (PX Therapeutics, His-tagged) (human) (UniProt P12318); test: as above
Sequence of FcγRIIaH131 (PX Therapeutics, His-tagged) (human) (P12318 34-217 limits assumed): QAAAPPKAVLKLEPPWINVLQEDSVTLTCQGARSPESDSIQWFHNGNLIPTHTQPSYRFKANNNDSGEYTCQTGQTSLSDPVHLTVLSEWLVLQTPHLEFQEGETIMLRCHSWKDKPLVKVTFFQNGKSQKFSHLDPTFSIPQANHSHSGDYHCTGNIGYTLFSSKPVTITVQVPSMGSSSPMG

[9] = molecular target: FcγRIIaR131 (R&D system) (human) (UniProt P12318); test: as above
[10] = molecular target: FcγRIIb (R&D system) (human) (UniProt P31994); test: as above
[11] = molecular target: C1q complement (Calbiochem) (UniProt P02745); test: ELISA, 293-F supernatant, vs R603 IgG-WT
[12] = molecular target: FcRn-p3 (fusion protein of β2 microglobulin chain and FcRn α-chain fused to bacteriophage protein p3 and CVDE protein) (UniProt P61769); test: ELISA, 293-F supernatant, vs R603 IgG-WT
[13] = molecular target: FcγRI (R&D system) (human) (UniProt P12314); test: ELISA, 293-F supernatant, vs R603 IgG-WT
[14] = molecular target: FcγRIIIaV158 (R&D system) (human) (UniProt P08637); test: ELISA, 293-F supernatant, vs R603 IgG-WT
Sequence of FcγRIIIaV158 (R&D system) (human) (P08637 17-208 F176V limits assumed): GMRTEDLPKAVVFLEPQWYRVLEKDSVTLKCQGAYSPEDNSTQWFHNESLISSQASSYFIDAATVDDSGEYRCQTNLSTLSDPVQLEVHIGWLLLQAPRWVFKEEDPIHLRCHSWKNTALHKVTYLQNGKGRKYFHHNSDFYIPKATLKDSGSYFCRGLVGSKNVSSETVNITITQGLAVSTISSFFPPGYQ

[15] = molecular target: FcγRIIaR131 (R&D system) (human) (UniProt P12318); test: ELISA, 293-F supernatant, vs R603 IgG-WT
[16] = molecular target: FcγRIIb (R&D system) (human) (UniProt P31994); test: ELISA, 293-F supernatant, vs R603 IgG-WT
[17] = molecular target: FcRn-p3 (fusion protein of β2 microglobulin chain and FcRn α-chain fused to bacteriophage protein p3 and CVDE protein) (UniProt P61769); test: ELISA, purified IgG from YB2/0, vs R603 IgG-WT
[18] = molecular target: FcγRI (R&D system) (human) (UniProt P12314); test: ELISA, purified IgG from YB2/0, vs R603 IgG-WT
[19] = molecular target: FcγRIIIaF158 (PX Therapeutics, His-tagged) (human) (UniProt P08637); test: ELISA, purified IgG from YB2/0, vs R603 IgG-WT
Sequence of FcγRIIIaF158 (PX Therapeutics, His-tagged) (human) (P08637 17-208 limits assumed): as the sequence (P08637 17-208 F176V limits assumed) above, with V160F counted along it

[20] = molecular target: FcγRIIIaV158 (R&D system) (human) (UniProt P08637); test: ELISA, purified IgG from YB2/0, vs R603 IgG-WT
[21] = molecular target: FcγRIIaH131 (PX Therapeutics, His-tagged) (human) (UniProt P12318); test: ELISA, purified IgG from YB2/0, vs R603 IgG-WT
[22] = molecular target: FcγRIIaR131 (R&D system) (human) (UniProt P12318); test: ELISA, purified IgG from YB2/0, vs R603 IgG-WT
[23] = molecular target: FcγRIIb (R&D system) (human) (UniProt P31994); test: ELISA, purified IgG from YB2/0, vs R603 IgG-WT
[24] = molecular target: C1q complement (Calbiochem) (UniProt P02745); test: cell-based or functional assay
[25] = molecular target: T1, CD20 antigen on Raji lymphoblastoid B cells (UniProt P11836); test: flow cytometry on Raji cells
T1 sequence (looked up): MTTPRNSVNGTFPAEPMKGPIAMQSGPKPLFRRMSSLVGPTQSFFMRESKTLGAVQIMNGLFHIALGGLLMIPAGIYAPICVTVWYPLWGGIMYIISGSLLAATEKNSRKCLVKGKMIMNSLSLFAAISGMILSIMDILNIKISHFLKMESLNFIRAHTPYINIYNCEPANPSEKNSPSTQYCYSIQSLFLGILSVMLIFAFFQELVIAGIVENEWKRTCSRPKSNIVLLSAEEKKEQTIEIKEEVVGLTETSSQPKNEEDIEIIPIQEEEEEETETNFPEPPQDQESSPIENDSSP

[26] = molecular target: Recombinant soluble human FcRn (human) (UniProt P55899); test: SPR (BIAcore X100), FcRn immobilised, pH 6.0
[27] = molecular target: Recombinant soluble human FcRn (human) (UniProt P55899); test: SPR, FcRn immobilised, pH 6.0; reference R603
Fcγ receptors = test: cell-based or functional assay
[28] = molecular target: RhD antigen on RhD+ red blood cells (UniProt Q02161); test: flow cytometry on RhD+ red blood cells
Sequence of RhD antigen on RhD+ red blood cells (Q02161 2-417 limits assumed): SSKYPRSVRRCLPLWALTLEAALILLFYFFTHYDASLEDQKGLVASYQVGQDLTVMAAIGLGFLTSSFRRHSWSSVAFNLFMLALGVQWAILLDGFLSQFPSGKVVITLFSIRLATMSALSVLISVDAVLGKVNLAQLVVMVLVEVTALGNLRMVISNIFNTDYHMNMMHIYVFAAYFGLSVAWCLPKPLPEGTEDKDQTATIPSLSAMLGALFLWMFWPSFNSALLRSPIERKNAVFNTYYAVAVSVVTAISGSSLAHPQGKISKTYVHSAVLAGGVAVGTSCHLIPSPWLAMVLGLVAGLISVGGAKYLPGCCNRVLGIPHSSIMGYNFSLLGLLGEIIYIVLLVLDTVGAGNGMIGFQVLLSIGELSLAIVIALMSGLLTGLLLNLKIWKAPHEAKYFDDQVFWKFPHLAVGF

[29] = molecular target: Recombinant soluble human FcRn (human) (UniProt P55899); test: SPR, FcRn immobilised, pH 6.0; reference R593
[30] = molecular target: FcRn-p3 (fusion protein of β2 microglobulin chain and FcRn α-chain fused to bacteriophage protein p3 and CVDE protein) (UniProt P61769); test: ELISA, purified IgG from YB2/0, vs R593 IgG-WT
[31] = molecular target: FcγRI (R&D system) (human) (UniProt P12314); test: ELISA, purified IgG from YB2/0, vs R593 IgG-WT
[32] = molecular target: FcγRIIIaF158 (PX Therapeutics, His-tagged) (human) (UniProt P08637); test: ELISA, purified IgG from YB2/0, vs R593 IgG-WT
[33] = molecular target: FcγRIIIaV158 (R&D system) (human) (UniProt P08637); test: ELISA, purified IgG from YB2/0, vs R593 IgG-WT
[34] = molecular target: FcγRIIaH131 (PX Therapeutics, His-tagged) (human) (UniProt P12318); test: ELISA, purified IgG from YB2/0, vs R593 IgG-WT
[35] = molecular target: FcγRIIaR131 (R&D system) (human) (UniProt P12318); test: ELISA, purified IgG from YB2/0, vs R593 IgG-WT
[36] = molecular target: FcγRIIb (R&D system) (human) (UniProt P31994); test: ELISA, purified IgG from YB2/0, vs R593 IgG-WT

Sequence of C1q complement (Calbiochem) (P02745 23-245, chain 1 of 3): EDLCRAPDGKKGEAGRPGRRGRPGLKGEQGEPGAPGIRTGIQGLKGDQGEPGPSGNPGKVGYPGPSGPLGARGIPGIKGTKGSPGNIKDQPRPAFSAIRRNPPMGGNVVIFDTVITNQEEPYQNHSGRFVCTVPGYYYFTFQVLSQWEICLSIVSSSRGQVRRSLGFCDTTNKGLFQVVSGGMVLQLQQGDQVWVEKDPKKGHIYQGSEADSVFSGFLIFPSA
Sequence of C1q complement (Calbiochem) (P02746 28-253, chain 2 of 3, further chain): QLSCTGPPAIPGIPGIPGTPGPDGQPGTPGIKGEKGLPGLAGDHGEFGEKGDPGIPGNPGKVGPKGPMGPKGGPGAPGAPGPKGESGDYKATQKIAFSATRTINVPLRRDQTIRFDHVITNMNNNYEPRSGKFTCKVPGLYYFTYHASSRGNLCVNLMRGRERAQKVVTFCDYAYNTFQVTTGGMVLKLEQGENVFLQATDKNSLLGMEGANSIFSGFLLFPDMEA
Sequence of C1q complement (Calbiochem) (P02747 29-245, chain 3 of 3, further chain): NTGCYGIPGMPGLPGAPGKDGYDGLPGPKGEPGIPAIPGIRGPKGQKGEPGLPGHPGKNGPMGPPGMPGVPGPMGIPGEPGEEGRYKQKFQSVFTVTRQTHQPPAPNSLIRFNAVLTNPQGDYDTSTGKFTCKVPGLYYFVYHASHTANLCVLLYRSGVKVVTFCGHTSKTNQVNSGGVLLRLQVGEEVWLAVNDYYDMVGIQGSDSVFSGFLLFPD

Substance: R603 anti-CD20 IgG1 variant 256N/378V/383N/434Y (antibody)
Ratio/IgG-WT [11]: 3.65 | Ratio/IgG-WT [12]: 4.63 | Ratio/IgG-WT [13]: 0.93 | Ratio/IgG-WT [14]: 2.09 | Ratio/IgG-WT [15]: 2.59 | Ratio/IgG-WT [16]: 4.77 | Ratio/IgG-WT [17]: 8.51 | Ratio/IgG-WT [18]: 2.19 | Ratio/IgG-WT [19]: 1.25 | Ratio/IgG-WT [20]: 1.22 | Ratio/IgG-WT [21]: 0.93 | Ratio/IgG-WT [22]: 1.4 | Ratio/IgG-WT [23]: 1.83

Substance: R603 anti-CD20 IgG1 variant 294Del/302A (antibody)
Ratio/IgG-WT [11]: 0.21 | Ratio/IgG-WT [12]: 0.66 | Ratio/IgG-WT [13]: 0.06 | Ratio/IgG-WT [15]: 0.02 | Ratio/IgG-WT [16]: 0.06

Substance: R603 anti-CD20 IgG1 variant 230S/294Del/315D/428L/434Y (antibody)
Ratio/IgG-WT [11]: 0.35 | Ratio/IgG-WT [12]: 3.86 | Ratio/IgG-WT [13]: 0.25 | Ratio/IgG-WT [15]: 0.01 | Ratio/IgG-WT [16]: 0.02

Substance: R593 anti-RhD+ IgG1 variant 294Del (antibody)
ADCC EC50 (ng/ml), lysis of RhD+ red cells (Fcγ receptors): 75.9 ng/mL | ADCC Max. Lysis (%) (Fcγ receptors): 5% | Ag binding MFI (Arbitrary Unit) [28]: 52.6 | Kd [26]: 204 nM

Substance: R603 anti-CD20 IgG1 variant 294Del/315D (antibody)
Ratio/IgG-WT [11]: 0.29 | Ratio/IgG-WT [12]: 1.16 | Ratio/IgG-WT [13]: 0.4 | Ratio/IgG-WT [16]: 0.21

Substance: R593 anti-RhD+ IgG1 variant 259I/315D/434Y (antibody)
ADCC EC50 (ng/ml), lysis of RhD+ red cells (Fcγ receptors): 14.2 ng/mL | ADCC Max. Lysis (%) (Fcγ receptors): 89% | Ag binding MFI (Arbitrary Unit) [28]: 47.2 | Kd [26]: 20.4 nM | Ratio WT/IgG (KD) [29]: 9.31 | Ratio/IgG-WT [30]: 7.93 | Ratio/IgG-WT [31]: 1.08 | Ratio/IgG-WT [32]: 0.94 | Ratio/IgG-WT [33]: 0.95 | Ratio/IgG-WT [34]: 0.94 | Ratio/IgG-WT [35]: 1.05 | Ratio/IgG-WT [36]: 1.41

Second part, the substance after the results:

ratio to the IgG1 without 294Del [1]: 0.04 | ratio to the IgG1 without 294Del [2]: 0.75 | ratio to the IgG1 without 294Del [3]: 0.66 | ratio to the IgG1 without 294Del [4]: 0.004 | ratio to the IgG1 without 294Del [5]: 0.002 | ratio to the IgG1 without 294Del [6]: 1.04 | ratio to the IgG1 without 294Del [7]: 0.07 | ratio to the IgG1 without 294Del [8]: 0.09 | ratio to the IgG1 without 294Del [9]: 0.06 | ratio to the IgG1 without 294Del [10]: 0.25
Substance: R603 anti-CD20 IgG1 variant 256N/294Del/378V/383N/434Y (antibody)

CDC EC50 [24]: 0.41 µg/mL | Ag binding MFI (Arbitrary Unit) [25]: 137 | Ratio/IgG-WT [11]: 1.26 | Ratio/IgG-WT [12]: 4.32 | Ratio/IgG-WT [13]: 0.82 | Ratio/IgG-WT [14]: 1.08 | Ratio/IgG-WT [15]: 1.23 | Ratio/IgG-WT [16]: 1.07 | Kd [26]: 26.9 nM | Ratio WT/IgG (KD) [27]: 3.68 | Ratio/IgG-WT [17]: 6.93 | Ratio/IgG-WT [18]: 1.12 | Ratio/IgG-WT [19]: 1.11 | Ratio/IgG-WT [20]: 1.11 | Ratio/IgG-WT [21]: 0.99 | Ratio/IgG-WT [22]: 1.11 | Ratio/IgG-WT [23]: 1.54
Substance: R603 anti-CD20 IgG1 variant 259I/315D/434Y (antibody)

ADCC EC50 (ng/ml), lysis of RhD+ red cells (Fcγ receptors): 11.1 ng/mL | ADCC Max. Lysis (%) (Fcγ receptors): 93% | Ag binding MFI (Arbitrary Unit) [28]: 49.6 | Kd [26]: 42 nM | Ratio WT/IgG (KD) [29]: 4.52 | Ratio/IgG-WT [30]: 7.49 | Ratio/IgG-WT [31]: 2.19 | Ratio/IgG-WT [32]: 0.92 | Ratio/IgG-WT [33]: 0.98 | Ratio/IgG-WT [34]: 1.01 | Ratio/IgG-WT [35]: 1.08 | Ratio/IgG-WT [36]: 1.55
Substance: R593 anti-RhD+ IgG1 variant 256N/378V/383N/434Y (antibody)

Ratio/IgG-WT [12]: 1.46 | Ratio/IgG-WT [13]: 0.33 | Ratio/IgG-WT [15]: 0.06 | Ratio/IgG-WT [16]: 0.11
Substance: R603 anti-CD20 IgG1 variant 294Del/378V (antibody)

Ratio/IgG-WT [11]: 0.25 | Ratio/IgG-WT [12]: 2.64 | Ratio/IgG-WT [13]: 0.49 | Ratio/IgG-WT [15]: 0.02 | Ratio/IgG-WT [16]: 0.05
Substance: R603 anti-CD20 IgG1 variant 294Del/434S (antibody)

Ratio/IgG-WT [11]: 0.46 | Ratio/IgG-WT [12]: 1.94 | Ratio/IgG-WT [13]: 0.35 | Ratio/IgG-WT [15]: 0.01 | Ratio/IgG-WT [16]: 0.2
Substance: R603 anti-CD20 IgG1 variant 294Del/307A (antibody)

Ag binding MFI (Arbitrary Unit) [25]: 126 | Kd [26]: 190 nM
Substance: R603 anti-CD20 IgG1 variant 294Del (antibody)

Ratio/IgG-WT [11]: 0.25 | Ratio/IgG-WT [12]: 0.84 | Ratio/IgG-WT [13]: 0.68 | Ratio/IgG-WT [15]: 0.03 | Ratio/IgG-WT [16]: 0.04
Substance: R603 anti-CD20 IgG1 variant 294Del/397M (antibody)
